System: LLO91-99-specific T cells
Experiment: epitope-tag (HSV) staining for surface-bound MHC / dissociation experiments by flow cytometry
Format: cell-based
Procedure: FIG. 5: Development of a reversible MHC multimer staining technology. (a) LLO91-99-specific T cells were stained for 30 min with monomeric or tetrameric (“tet”) LLO91-99/H2-K^d/β2m-HSV-tag or p60217-225/H2-K^d/β2m-HSV-tag reagents. Cells were fixed without washing (upper histogram) or after 2 washing steps (lower histogram) with 1% paraformaldehyde and subsequently stained for remaining HSV-epitope-tag on the cell surface (x-axis). (b+c) LLO91-99-specific T cells were stained for 45 min with LLO91-99/H2-K^dStrep-tag® II peptide/β2-HSV-tag:Strep:Tactin® polypeptide polymers (IBA GmbH) (“poly”), briefly washed to remove unbound reagents, and incubated in the presence (b) or absence (c) of 1 mM d-biotin; all steps were performed at 4° C. Cell aliquots were harvested after different time intervals (indicated above histograms), fixed with 1% paraformaldehyde, and stained for remaining HSV-epitope-tag on the cell surface (x-axis).
FIG. 6: Improvement of MHC-Strep-tag® II peptide/Strep-Tactin® polypeptide (IBA GmbH) multimer reagents. […]
FIG. 7: Reversible MHC multimer staining and T cell function. […] (a) Staining for recombinant MHC-molecules (detected by epitope-tag staining, x-axis) on differently treated T cells. […] Numbers of viable bacteria (y-axis) were determined 48 h following Lysteria infection. […]

B1: monomeric MHC/epitope molecules: monomeric LLO91-99/H2-K^d/β2m-HSV-tag reagent (protein)
MHC heavy: GPHSLRYFVTAVSRPGLGEPRFIAVGYVDDTQFVRFDSDADNPRFEPRAPWMEQEGPEYWEEQTQRAKSDEQWFRVSLRTAQRYYNQSKGGSHTFQRMFGCDVGSDWRLLRGYQQFAYDGRDYIALNEDLKTWTAADTAALITRRKWEQAGDAEYYRAYLEGECVEWLRRYLELGNETLLRTDSPKAHVTYHPRSQVDVTLRCWALGFYPADITLTWQLNGEDLTQDMELVETRPAGDGTFQKWAAVVVPLGKEQNYTCHVHHKGLPEPLTLRWKLPPSTVSNT
b2m: IQKTPQIQVYSRHPPENGKPNILNCYVTQFHPPHIEIQMLKNGKKIPKVEMSDMSFSKDWSFYILAHTEFTPTETDTYACRVKHASMAEPKTVYWDRDM
peptide: GYKDGNEYI
modifications: left off: a dimerising Fc or GST; small tags and cut ends
notes: monomeric LLO91-99/H2-K^d/β2m-HSV-tag reagent
MHC monomers on the cell surface (after brief washing, 4° C.): all reagent-derived MHC monomers disappear from the cell surface | interaction of MHC monomers with T cell surface (fixed immediately with paraformaldehyde, no washing): some detectable interaction

— patent US8298782B2, “Reversible MHC multimer staining for functional purification of antigen-specific T cells” (priority 2000, dated 2012)
